In publication PMC3529520:

Columns and labels:
Mupp1 = Mupp1 (UniProt O75970); experiment: co-IP with anti-GFP, Mupp1 blot; conditions: reference: wild-type YFP-Syx; sites S806
[1] = molecular target: YFP-tagged murine Syx S806A (mouse) (UniProt Q66T02); experiment: co-IP
Chain of UniProt Q66T02 (Q66T02 whole entry S806A): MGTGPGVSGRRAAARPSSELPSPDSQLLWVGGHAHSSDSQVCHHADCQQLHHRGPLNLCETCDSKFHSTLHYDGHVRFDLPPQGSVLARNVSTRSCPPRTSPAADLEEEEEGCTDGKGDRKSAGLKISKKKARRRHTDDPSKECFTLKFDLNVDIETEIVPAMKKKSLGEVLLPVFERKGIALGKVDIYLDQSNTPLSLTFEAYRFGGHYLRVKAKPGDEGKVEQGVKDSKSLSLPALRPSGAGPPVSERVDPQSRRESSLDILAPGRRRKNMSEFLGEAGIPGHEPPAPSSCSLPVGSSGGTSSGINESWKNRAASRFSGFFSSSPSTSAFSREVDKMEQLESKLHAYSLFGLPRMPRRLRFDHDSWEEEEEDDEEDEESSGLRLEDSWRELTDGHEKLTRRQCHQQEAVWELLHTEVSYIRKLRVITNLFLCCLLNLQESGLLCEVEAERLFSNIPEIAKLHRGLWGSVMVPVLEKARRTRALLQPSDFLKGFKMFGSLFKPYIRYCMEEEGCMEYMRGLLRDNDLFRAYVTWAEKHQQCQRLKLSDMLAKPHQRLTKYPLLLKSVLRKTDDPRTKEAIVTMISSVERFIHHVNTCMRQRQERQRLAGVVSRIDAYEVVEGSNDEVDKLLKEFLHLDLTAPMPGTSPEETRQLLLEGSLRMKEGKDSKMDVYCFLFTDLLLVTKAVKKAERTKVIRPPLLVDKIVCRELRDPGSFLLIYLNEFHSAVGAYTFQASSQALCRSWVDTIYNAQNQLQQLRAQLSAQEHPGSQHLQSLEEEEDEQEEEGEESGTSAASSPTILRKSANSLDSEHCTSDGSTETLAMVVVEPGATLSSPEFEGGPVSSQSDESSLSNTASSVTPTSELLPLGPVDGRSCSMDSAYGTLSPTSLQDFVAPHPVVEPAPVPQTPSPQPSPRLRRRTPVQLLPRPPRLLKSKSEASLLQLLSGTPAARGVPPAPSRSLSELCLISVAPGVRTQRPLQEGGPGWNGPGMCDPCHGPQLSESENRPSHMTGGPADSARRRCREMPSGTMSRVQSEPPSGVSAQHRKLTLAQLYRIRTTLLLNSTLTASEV

Row | fold change (Mupp1) | amount of Mupp1 coimmunoprecipitated, fold of that with YFP-Syx [1] | Substance
1 | stronger |  | Syx (murine, YFP-mSyx) (from UniProt Q66T02) YFP-Syx-S806A
2 |  | 2 fold | Mupp1 (multiple PDZ domain protein 1), O75970 1-2070
